Data on 13 molecules can be found in US20200317776A1 (published 2020).

B1: AL2p-48 (antibody, V domains shown)
VH: QVQLVQSGAEVKKPGSSVKVSCKASGYAFSSDWMNWVRQAPGQGLEWMGRIYPGEGDTNYARKFHGRVTITADESTSTAYMELSSLRSEDTAVYYCARLLRNKPGESYAMDYWGQGTLVTVSS
VL: DVVMTQTPLSLSVTPGQPASISCRTSQSLVHSNQYTYLHWYLQKPGQSPQLLIYKVSNRVSGVPDRFSGSGSGTDFTLKISRVEAEDVGVYYCSQSTRVPYTFGQGTKLEIK
notes: Fab and IgG formats under one id
B2: AL2p-49 (antibody, V domains shown)
VH: B1 VH with Q1E
VL: B1 VL
notes: as for B1
B3: AL2p-52 (antibody, V domains shown)
VH: B1 VH with Q1E, D32H, R62Q, K103Q
VL: B1 VL with Q34A
notes: as for B1
B4: AL2p-54 (antibody, V domains shown)
VH: B1 VH with D32H, R62Q
VL: B1 VL
notes: as for B1
B5: AL2p-53 (antibody, V domains shown)
VH: B1 VH with Q1E, D32H, R62Q, K103Q
VL: B1 VL
notes: as for B1
B6: AL2p-55 (antibody, V domains shown)
VH: B1 VH with Q1E, D32H, R62Q
VL: B1 VL with Q34A
notes: same VH/VL entries as AL2p-56; Fab and IgG formats under one id
B7: AL2p-57 (antibody, V domains shown)
VH: B1 VH with Q1E, D32H, R62Q
VL: B1 VL
notes: as for B1
B8: AL2p-50 (antibody, V domains shown)
VH: B1 VH with D32H, R62Q, K103Q
VL: B1 VL with Q34A
notes: as for B1
B9: AL2p-51 (antibody, V domains shown)
VH: B1 VH with D32H, R62Q, K103Q
VL: B1 VL
notes: as for B1
B10: AL2p-56 (antibody, V domains shown)
VH: B1 VH with Q1E, D32H, R62Q
VL: B1 VL with Q34A
notes: same VH/VL entries as AL2p-55; Fab and IgG formats under one id
B11: AL2p-h36 (antibody, human IgG1, V domains shown)
VH: EVQLLESGGGLVQPGGSLRLSCAASGYAFSSSWMNWVRQAPGKGLEWIGRIYPGDGDTNYAQKFQGRATISADTSKNTAYLQMNSLRAEDTAVYYCARLLRNQPGESYAMDYWGQGTLVTVSS
VL: B1 VL with T25S, Q34G, V60F, V88L, Y92F
B12: AL2p-h29 (antibody, human IgG1, V domains shown)
VH: B1 VH with S16A, D32S, M48I, E55D, R62Q, H65Q, V68A, I70M, E74T, K103Q
VL: B1 VL with T25S, Q34G, V60F, V88L, Y92F
B13: AL2p-h28 (antibody, human IgG1, V domains shown)
VH: QVQLVQSGAEVKKPGASVKVSCKASGYAFSSSWMNWVRQAPGQGLEWIGRIYPGDGDTNYAQKFQGRATLTADTSTSTAYMELSSLRSEDTAVYFCARLLRNQPGESYAMDYWGQGTLVTVSS
VL: B1 VL with T25S, Q34G, V60F, V88L, Y92F

Changes are numbered by the printed parent chain.

T4 sequence (O43914 other isoform, or with tags, fused parts or gaps limits assumed): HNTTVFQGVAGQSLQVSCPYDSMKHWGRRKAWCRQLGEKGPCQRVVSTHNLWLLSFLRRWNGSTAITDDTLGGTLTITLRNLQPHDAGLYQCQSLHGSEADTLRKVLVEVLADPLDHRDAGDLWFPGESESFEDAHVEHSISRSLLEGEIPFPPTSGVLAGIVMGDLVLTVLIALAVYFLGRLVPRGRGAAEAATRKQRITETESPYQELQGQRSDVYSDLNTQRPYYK

The target in one experiment is T1, cynomolgus monkey TREM2 Fc fusion (entire TREM2 ECD; only one Fc arm fused to TREM2) (cynomolgus monkey, UniProt Q9NZC2 19-174 (human entry)).
T1 construct: also called cyno TREM2-Fc
T1 chain: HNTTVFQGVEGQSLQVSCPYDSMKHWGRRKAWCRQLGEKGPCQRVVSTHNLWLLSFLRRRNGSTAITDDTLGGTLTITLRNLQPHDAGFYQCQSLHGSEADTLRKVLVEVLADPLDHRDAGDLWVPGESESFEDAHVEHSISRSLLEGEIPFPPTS
Briefly: BLI, Fab, monovalent.
The molecule B1 returned a Kd of 14.9 nM.
Still for that read-out and setting: the same measure for B2: 14.1 nM; for B3: 28 nM; for B4: 16.8 nM.
Still for that read-out and setting: as for B5, the figure is 31.3 nM; as for B6, 22.6 nM; as for B7, 17.6 nM.
Same read-out and setting: the same measure for B8: 36.1 nM; for B9: 27.2 nM.
As for B10, the Kd came out at 18.8 nM.

A further experiment deals with T2, human TREM2 Fc fusion (entire TREM2 ECD; only one Fc arm fused to TREM2) (human, UniProt Q9NZC2 19-174).
T2 construct: also called huTREM2-Fc; recombinant hTREM2
T2 sequence: T1 chain with E10A, R60W, F89L, V125F
Briefly: BLI, Fab, monovalent. Background: Biolayer interferometry detects binding as a change in optical thickness at a sensor tip.
Turning to B1, the Kd was 11.2 nM.
B2 showed a Kd of 11.6 nM.
The same measure, in the same setting: the same measure for B3: 27 nM; for B4: 13.9 nM.
The same measure, in the same setting: as for B5, the figure is 21.1 nM.
Regarding B6, binding was characterised by a dissociation constant (Kd) of 18.5 nM.
Same read-out and setting: the same measure for B7: 17.8 nM.
The same measure, in the same setting: as for B8, the figure is 23.9 nM; as for B9, 21.2 nM.
On the same count and under the same terms, the same measure for B10: 18.7 nM.

The target of another experiment is T3, human TREM2 expressed on cells (human, UniProt Q9NZC2 19-230).
T3 construct: BW5147.G.1.4 cells stably expressing human TREM2 together with Dap12, or endogenous TREM2 of primary human myeloid cells; also called huT2 BW; hTREM2 expressing cell line
T3 sequence: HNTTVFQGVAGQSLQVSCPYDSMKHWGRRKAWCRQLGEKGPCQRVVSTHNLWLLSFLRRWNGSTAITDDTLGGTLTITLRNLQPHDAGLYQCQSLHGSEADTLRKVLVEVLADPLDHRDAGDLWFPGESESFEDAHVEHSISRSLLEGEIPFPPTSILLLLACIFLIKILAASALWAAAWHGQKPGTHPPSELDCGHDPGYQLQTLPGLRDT
Briefly: FACS, hTREM2 BW cells. Summed up: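 Cells were BW5147.G.1.4 stably expressing human TREM2 with Dap12, or human monocyte-derived dendritic cells differentiated 6 days with GM-CSF and IL-4. Antibodies bound 1 h on ice in PBS+2% FBS, then PE anti-human secondary 30 min on ice; flow cytometry read-out as mean fluorescence intensity.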
Background: Flow cytometry measures light scatter and fluorescence of single cells or particles in a stream.
In turn, B1 showed a Kd of 1.4 nM.
The same measure, in the same setting: as for B2, the figure is 1.15 nM; as for B3, 2.42 nM; as for B4, 2.3 nM.
On the same count and under the same terms, as for B5, the figure is 1.72 nM; as for B6, 2.05 nM.
Still for that read-out and setting: as for B7, the figure is 1.83 nM; as for B8, 1.8 nM; as for B9, 1.92 nM.
For the molecule B10, binding was characterised by a dissociation constant (Kd) of 2.01 nM.

A further experiment concerns the target T4, human TREM2/DAP12 fusion protein (human, UniProt O43914 41-113, limits assumed). Briefly: cell-based or functional assay.
Regarding B11, the “Soluble luciferase activation at 10 µg/ml Fold over control” value is 4.13 fold over control.
Same read-out and setting: as for B12, the figure is 5.8 fold over control; as for B13, 5.59 fold over control.

For another experiment, the target named is T3, human TREM2 expressed on cells. In words: FACS, human DCs. An excerpt:
To examine cell binding of affinity matured anti-TREM2 antibodies, both primary human monocyte derived dendritic cells and recombinant, human TREM2 expressing cells were utilized. For the latter, BW5147.G.1.4 (ATCC® TIB48™) and HEK293T cells stably expressing human TREM2 together with Dap12 using viral infection were established. For primary human monocyte derived dendritic cells, human monocytes were isolated from whole blood using RosetteSep Human monocyte enrichment cocktail (Stemcell technologies) and Ficoll centrifugation per manufacturer protocols. After lysing red blood cells with ACK lysing buffer, monocytes were resuspended in complete media (RPMI, 10% FBS, Pen/Strep, L-glutamine, HEPES, non-essential amino acid, Sodium pyruvate) with 100 ng/ml human GM-CSF (hu-GMCSF) and, human IL-4 (hu-IL-4) to differentiate dendritic cells for 6 days.
Cells were harvested by trypsinization (Hek293T) or scraping (BW and dendritic cells), washed in PBS, counted and plated on 96-well U bottom plates at […] cells/well. The plates were spun at 1,400 rpm for 3 minutes and primary TREM2 or control antibodies were added in FACS buffer (PBS+2% FBS) and incubated on ice for one hour. Cells were subsequently centrifuged as before and washed thrice with FACS buffer. Cells were then incubated with anti-human PE conjugated secondary antibody (BD Biosciences) in FACS buffer for 30 minutes on ice. Cells were again washed thrice with FACS buffer and analyzed on a BD FACS Canto or an Intellicyt Flow Cytometer. Binding was measured as mean fluorescence intensity in the APC channel.
For the molecule B1, the MFI was determined as 408 MFI.
With B2, the MFI is 413 MFI.
Same read-out and setting: as for B3, the figure is 224 MFI.
On to B4, for which the MFI was determined as 235 MFI.
On the same count and under the same terms, as for B5, the figure is 159 MFI; as for B6, 141 MFI; as for B7, 152 MFI.
Consider B8, for which the MFI is 235 MFI.
In the case of B9, the MFI amounted to 195 MFI.
In turn, B10 gave an MFI of 155 MFI.

Another experiment concerns the target T4, human TREM2/DAP12 fusion protein. Briefly: cell-based or functional assay. The source holds these as a separate data set.
For the molecule B1, the “BW Luc assay plate bound 7.3 nM IgG, FOC” value was found to be 3.25 FOC and the “BW Luc assay soluble 7.3 nM IgG, FOC” value was 3.65 FOC.
With B2, the “BW Luc assay plate bound 7.3 nM IgG, FOC” value stood at 3.12 FOC and the “BW Luc assay soluble 7.3 nM IgG, FOC” value was found to be 3.28 FOC.
The corresponding values for B3 are 1.3 FOC and 1.75 FOC.
In the same order, the values of B4 are 1.53 FOC and 2.17 FOC.
Turning to B5, the “BW Luc assay plate bound 7.3 nM IgG, FOC” value was 1.45 FOC and the “BW Luc assay soluble 7.3 nM IgG, FOC” value is 2.32 FOC.
For the molecule B6, the “BW Luc assay plate bound 7.3 nM IgG, FOC” value was found to be 1.49 FOC and the “BW Luc assay soluble 7.3 nM IgG, FOC” value was 2.08 FOC.
In the same order, the values of B7 are 1.41 FOC and 2.03 FOC.
In the same order, the values of B8 are 1.19 FOC and 2.07 FOC.
In the same order, the values of B9 are 1.22 FOC and 2.3 FOC.
On to B10, for which the “BW Luc assay plate bound 7.3 nM IgG, FOC” value turned out to be 1.51 FOC and the “BW Luc assay soluble 7.3 nM IgG, FOC” value came to 2.02 FOC.

For another experiment, the target named is T3, human TREM2 expressed on cells. Briefly: cell-based or functional assay.
As to B1, the “DC viability (AUC)” value came to 770000 AUC and the “Mac viability (AUC)” value came to 23600 AUC.
In the same order, the values of B2 are 754000 AUC and 15100 AUC.
The corresponding values for B3 are 283000 AUC and -13500 AUC.
For the molecule B4, the “DC viability (AUC)” value came out at 570000 AUC and the “Mac viability (AUC)” value is -7640 AUC.
The corresponding values for B5 are 234000 AUC and -10200 AUC.
The corresponding values for B6 are 631000 AUC and -5280 AUC.
In the same order, the values of B7 are 506000 AUC and -3560 AUC.
With B8, the “DC viability (AUC)” value was found to be 286000 AUC and the “Mac viability (AUC)” value was -10400 AUC.
In the same order, the values of B9 are 259000 AUC and -11200 AUC.
The corresponding values for B10 are 643000 AUC and -7620 AUC.

Broadly, the Kd is the constant that tells how readily two partners part at equilibrium.
